# Reference: patent US9872921B2, “DE-N-acetyl sialic acid antigens, antibodies thereto, and methods of use in cancer therapy” (priority 2004, dated 2018)
# Key:
# [1] = tested on: CHP-134 neuroblastoma cells; assay: Flow cytometry binding to cells; type: cell-based, human
# Experimental: (§1) Cells (approximately 10^5 per well) were plated onto a flat bottom 96-well tissue culture plate (Nunc) and incubated with growth medium overnight before assay. Cells were detached from the plate by either trypsin (SK-MEL-28) or CDR (CHP-134) before being collected into a 96-round bottom plate, spun at 500 g for 5 minutes and fixed with ice-cold 1% (v/v) formaldehyde. After 20 minutes cells were pelleted by centrifugation (above) and incubated a blocking solution of 3% (v/v) goat serum with and without Triton X-100 (0.5% w/v) for 1 hour. After which the primary antibodies were added and incubated for 2 h or overnight at 4° C. The cells were washed twice by pelleting and resuspension in ice-cold PBS. Secondary antibody (Invitrogen, as described above) was incubated with the cells for at least 1 hour at 4° C. in the dark. After another series of spins and washes (3 times) binding was analyzed by a Guava EastCyte flow cytometer. Control samples were treated with an isotype matched irrelevant antibody (Southern Biotech), which were used to create baseline fluorescence, or positive control mAbs that are reactive with antigens specifically expressed by the cells (i.e. anti-GD3 for SK-MEL 28 cells and anti-NCAM in CHP-134 cells). In addition, specificity of binding was shown for the Jurkat cells by preincubating SEAM 3 with 50 μg/ml N-Pr NmB PS prior to adding the mAb to the cells.
# [2] = tested on: Jurkat T-cell leukemia cells; assay: Flow cytometry binding to cells; type: cell-based, human
# Experimental: as §1
# SK-MEL 28 melanoma cells = assay: Flow cytometry binding to cells; type: cell-based, human
# Experimental: as §1
# normal tissues = assay: Immunohistochemistry on micro array of normal tissues; design: species or system human; details: 17 samples
# Experimental: Human tissue microarrays were obtained from US BioMax (Rockville, Md.). The tissue microarrays were deparaffinized in xylene (2 changes, 10 minutes each) then rehydrated by sequential 5 minute washes in 100% ethanol, 95% ethanol, 70% ethanol, 50% ethanol, and PBS buffer. Endogenous peroxidase was blocked by incubation with Peroxidazed 1 solution (Biocare, Concord, Calif.) for 5 minutes at ambient temperature. The sections were blocked with Terminator (Biocare) containing streptavidin then rinsed with PBS buffer. The primary antibody (purified SEAM 3 (vide infra), irrelevant IgG2b control, etc. at concentrations of 1 to 5 μg/ml)) was diluted in Da Vinci Green dilution buffer (Biocare) and incubated either overnight at 4 degrees C. or for 1 hour at ambient temperature. The slides were washed 3 times for 10 minutes each with PBS buffer then incubated with biotin conjugated rabbit anti-mouse IgG secondary antibody (5 μg/ml, Vector Labs, Burlingame, Calif.) for 30 minutes at ambient temperature. After washing 3 times for 10 minutes each with PBS buffer, horse radish peroxidase-streptavidin conjugate (Vector Labs) was added and incubated at ambient temperature for 30 minutes. The slides were washed 3 times for 10 minutes each with PBS buffer and incubated with AEC substrate (Vector Labs) containing hydrogen peroxide for color development. […]
# [3] = tested on: Jurkat cells (acute lymphoblastic T-cell leukemia); details: approximately proportional to level of antigen on cell surface
# [4] = tested on: Jurkat T-cell leukemia cells; assay: Fluorescence microscopy binding to cells; type: cell-based, human; details: without Triton
# Experimental: After an overnight incubation cells were gently washed with PBS buffer and fixed with ice-cold 1% (v/v) formaldehyde. After 20 minutes cells were washed with PBS before blocking non-specific binding with a solution of 3% goat serum for 1 hour. To observe the presence of SEAM 3-reactive antigen that is present inside the cells, the cells were treated Triton X-100 0.5% w/v in 3% goat serum for 1 hour. The primary antibodies were added and incubated for 2 hours or overnight at 4° C. Cells were gently washed by a series (at least twice) with ice-cold PBS before isotype-specific secondary antibody (produced in goat) conjugated with either Alexa Fluor 488 (immunofluorescence and confocal), Alexa Fluor 546 (confocal) Alexa Fluor 594 (immunofluorescence), Alexa Fluor 633 (confocal) was applied for at least 1 hour at 4° C. in the dark (all secondary antibodies conjugated to fluorophores were obtained from Invitrogen, Carlsbad, Calif.). After another series of gentle washes, a hardening mounting medium containing DAPI was applied.
# Confocal images were obtained using a Zeiss Meta510 CLSM at the Biological Imaging Facility, University of California, Berkeley, Calif. and were analyzed using ImageJ Software (NIH). Control antibodies and secondary antibodies applied alone were routinely used to assess background fluorescence.
molecule,measurement,setting,value
"SEAM 3: murine anti-N-Pr NmB polysaccharide monoclonal antibody (IgG2b), ATCC Deposit No. HB-12170 (antibody, V domains shown, mouse) VH: EVKLQESGGGLVQPGDSLSLSCAASGFTFTPYYMGWVRQPPGKALEWLGYIRNKANGYTTEYSASVKGRFTISRDNSQSILYLQMNALRAEDSATYYCARYARGTVDSWGQGTTLTVS VL: DIVMTQSPLTLSVTIGQPASISCKSSQSLLHSNGKTYLNWLLQRPGQSPKLLIYLVSKLESGVPDRFSGSGSGTDFTLKISRVEAEDLGLYYCLQIIHFPHTFGAGTKLELKRA",binding to internal antigen by flow cytometry,[1]; +Triton X-100,larger amounts of internal SEAM 3-reactive antigen
same,binding to cell surface by flow cytometry,[1]; −Triton,greatest amount of binding
same,binding to internal antigen by flow cytometry,[2]; +Triton X-100,larger amounts of internal SEAM 3-reactive antigen
same,binding to cell surface by flow cytometry,[2]; −Triton,least
same,binding to internal antigen by flow cytometry,SK-MEL 28 melanoma cells; +Triton X-100,larger amounts of internal SEAM 3-reactive antigen
same,binding to cell surface by flow cytometry,SK-MEL 28 melanoma cells; −Triton,binds to the surface of all three cell lines
same,normal tissue samples positive for binding,normal tissues,15 of 17
same,staining grade in positive normal tissue samples,normal tissues,+ to ++
same,cytotoxic effect,[3],cytotoxic effect of SEAM 3 was observed
same,binding to cell surface by microscopy,[4],fluorescence is uniform over the cell surface
